In experiment [1] the target is T1, 人CD138 (human, UniProt P18827 23-310).
T1 construct: whole, on cells; also called syndecan-1; CD138靶抗原
T1 sequence (looked up): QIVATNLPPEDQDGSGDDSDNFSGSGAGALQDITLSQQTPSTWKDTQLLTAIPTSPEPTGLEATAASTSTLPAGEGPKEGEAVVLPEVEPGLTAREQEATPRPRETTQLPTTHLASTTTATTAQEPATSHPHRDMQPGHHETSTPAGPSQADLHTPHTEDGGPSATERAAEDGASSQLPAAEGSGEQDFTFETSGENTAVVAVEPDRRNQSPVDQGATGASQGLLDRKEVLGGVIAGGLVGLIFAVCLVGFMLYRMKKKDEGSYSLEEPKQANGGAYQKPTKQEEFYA
The experiment in a line: flow cytometry titration of antibody dilutions (from 1 mg/mL) on cultured activated human cells, goat anti-mouse IgG-PE detection. For orientation: A flow cytometer gives signals particle by particle.

Experiment [2] has as its target T1, 人CD138. As to the kind of experiment: flow cytometry, APC-labelled antibody on cultured activated cells.

B1: 鼠抗人CD138[ZXCloneHCD138-02]抗体 (antibody, mouse IgG1, kappa, V domains shown)
VH: QVQLQQPGSVLVRPGASVKLSCKTSGYTFTSSWMHWAKQRPGQGLEWIGEIHPNGGNTYYNEKFKGKATLSVDTSSSTAYVDLSSLTSEDSAVYFCATPHYWGQGTTLTVSS
VL: DVVMTQTPLSLPVSLGDQASISCRCRQSLVHSNGNTYLQWYLQKPGQSPILLIYRVSNRFSGVPDRFSGSGSGTDFTLKISRVEAEDLGVYFCSQSTHVPHTFGAGTKLELKR
On to B1, for which the 亲和力(kd) in experiment [1] is 25.2.

B2: 自制鼠抗人CD138[ZXCloneHCD138-02]-APC (antibody, mouse IgG1, kappa, V domains shown)
VH: QVQLQQPGSVLVRPGASVKLSCKTSGYTFTSSWMHWAKQRPGQGLEWIGEIHPNGGNTYYNEKFKGKATLSVDTSSSTAYVDLSSLTSEDSAVYFCATPHYWGQGTTLTVSS
VL: DVVMTQTPLSLPVSLGDQASISCRCRQSLVHSNGNTYLQWYLQKPGQSPILLIYRVSNRFSGVPDRFSGSGSGTDFTLKISRVEAEDLGVYFCSQSTHVPHTFGAGTKLELKR
modifications: APC-labelled (site and chain not stated)
Turning to B2, in experiment [2], the binding result is “binds”.

The values above are taken from patent publication CN118290581A (ZHEJIANG ZHENGXI BIOTECHNOLOGY CO LTD, dated 2024).
